PMC2596764 (Nature immunology, 2008)
Like-named read-outs stand apart in the source and are kept apart here. Non-standard residues stand in square brackets, D forms with d. Residues, ends and D or L forms follow the SMILES beside them. No end group written: not given here. pS = N[C@@H](COP(=O)(O)O)C(=O)O

What was measured:
HLA-A2 = HLA-A2 (Homo sapiens, UniProt P04439, D140Y/D185E/D98H/E176V/E277Q/G131W/G231S/I119V/I121R/I166T/I218V/L300P/L318F/N151K/N90K/P208A/P217A/Q86G/Q94H/R138H/R169H/T345S); experiment: Competitive peptide binding assay to purified HLA-A2
[1] = biological target: HLA-A2-R65A (Ala substitution for Arg65) (Homo sapiens, UniProt P04439, D140Y/D185E/D98H/E176V/E277Q/G131W/G231S/I119V/I121R/I166T/I218V/N151K/N90K/P208A/P217A/Q86G/Q94H/R138H/R169H); experiment: Competitive peptide binding assay to mutant HLA-A2-R65A
[2] = biological target: HLA-A*0201 (HLA-A2) heavy chain refolded with β2-microglobulin; experiment: radioligand binding
[3] = biological target: HLA-A2-R65A heavy chain refolded with β2-microglobulin; experiment: radioligand binding
[4] = biological target: HLA-A*0201 (HLA-A2) heavy chain refolded with β2-microglobulin; experiment: radioligand binding; remark: listed apart in the source
[5] = biological target: HLA-A2-R65A heavy chain refolded with β2-microglobulin; experiment: radioligand binding; remark: listed apart in the source

Molecule	IC50 (HLA-A2) [µM]	IC50 [4] [µM]	further results
CC[C@H](C)[C@H](NC(=O)CNC(=O)[C@H](COP(=O)(O)O)NC(=O)[C@H](CC(=O)O)NC(=O)[C@H](CC(C)C)NC(=O)[C@@H](N)Cc1ccc(O)cc1)C(=O)N[C@@H](Cc1c[nH]cn1)C(=O)N[C@@H](CO)C(=O)NCC(=O)N[C@@H](C)C(=O)O [YLDpSGIHSGA] (H-YLD[pS]GIHSGA-OH)	0.146	–	–
CSCC[C@H](NC(=O)[C@@H]1CCCN1C(=O)CNC(=O)[C@H](COP(=O)(O)O)NC(=O)[C@H](Cc1ccc(O)cc1)NC(=O)[C@@H](NC(=O)[C@@H](N)CCCNC(=N)N)[C@@H](C)O)C(=O)N[C@@H](CC(N)=O)C(=O)N[C@@H](CCCCN)C(=O)N[C@H](C(=O)O)C(C)C [RTYpSGPMNKV] (H-RTY[pS]GPMNKV-OH)	0.117	–	–
CC[C@H](C)[C@H](NC(=O)[C@H](CO)NC(=O)[C@H](C)NC(=O)[C@H](CCC(N)=O)NC(=O)[C@H](C)N)C(=O)N[C@@H](CCC(=O)O)C(=O)N[C@@H](CC(C)C)C(=O)N1CCC[C@H]1C(=O)N[C@@H](CO)C(=O)N[C@@H](CCSC)C(=O)O	1.18	–	IC50 [1]: 1.06 µM
CC[C@H](C)[C@H](NC(=O)[C@H](COP(=O)(O)O)NC(=O)[C@H](C)NC(=O)[C@H](CCC(N)=O)NC(=O)[C@H](C)N)C(=O)N[C@@H](CCC(=O)O)C(=O)N[C@@H](CC(C)C)C(=O)N1CCC[C@H]1C(=O)N[C@@H](CO)C(=O)N[C@@H](CCSC)C(=O)O [AQApSIELPSM]	0.0587	–	IC50 [1]: 0.972 µM
CC[C@H](C)[C@H](NC(=O)[C@H](CO)NC(=O)[C@H](CC(C)C)NC(=O)[C@H](COP(=O)(O)O)NC(=O)[C@H](C)NC(=O)[C@H](CCC(N)=O)NC(=O)[C@@H](N)CCCNC(=N)N)C(=O)N[C@@H](CO)C(=O)N[C@H](C(=O)O)C(C)C [RQApSLSISV] (H-RQA[pS]LSISV-OH)	0.0385	–	–
CC(C)C[C@H](NC(=O)CN)C(=O)N[C@@H](CC(C)C)C(=O)NCC(=O)N[C@@H](COP(=O)(O)O)C(=O)N1CCC[C@H]1C(=O)N[C@H](C(=O)N[C@@H](CCCNC(=N)N)C(=O)N[C@@H](C)C(=O)O)C(C)C [GLLGpSPVRA] (H-GLLG[pS]PVRA-OH)	0.169	–	–
CC(C)[C@H](NC(=O)CNC(=O)[C@H](CO)NC(=O)[C@@H](NC(=O)[C@@H]1CCCN1C(=O)[C@H](COP(=O)(O)O)NC(=O)[C@H](C)NC(=O)[C@@H](NC(=O)[C@@H](N)CCCNC(=N)N)C(C)C)[C@@H](C)O)C(=O)O [RVApSPTSGV] (H-RVA[pS]PTSGV-OH)	0.178	–	–
CC[C@H](C)[C@H](NC(=O)[C@H](CC(C)C)NC(=O)[C@@H](N)CCCCN)C(=O)N[C@@H](CC(=O)O)C(=O)N[C@@H](CCCNC(=N)N)C(=O)N[C@H](C(=O)N[C@@H](CCC(=O)O)C(=O)N[C@@H](COP(=O)(O)O)C(=O)N[C@@H](CC(C)C)C(=O)O)[C@@H](C)O [KLIDRTEpSL] (H-KLIDRTE[pS]L-OH)	0.0624	–	–
CSCC[C@H](NC(=O)[C@H](CC(=O)O)NC(=O)[C@H](CC(C)C)NC(=O)[C@H](Cc1ccccc1)NC(=O)[C@H](COP(=O)(O)O)NC(=O)[C@H](CC(=O)O)NC(=O)[C@H](CCSC)NC(=O)[C@@H](N)CCCCN)C(=O)N[C@@H](CCC(N)=O)C(=O)N[C@@H](CC(C)C)C(=O)O [KMDpSFLDMQL] (H-KMD[pS]FLDMQL-OH)	0.0034	–	–
CC[C@H](C)[C@H](NC(=O)[C@H](CO)NC(=O)[C@H](C)NC(=O)[C@H](CCC(N)=O)NC(=O)[C@@H](N)CCCNC(=N)N)C(=O)N[C@@H](CCC(=O)O)C(=O)N[C@@H](CC(C)C)C(=O)N1CCC[C@H]1C(=O)N[C@@H](CO)C(=O)N[C@@H](CCSC)C(=O)O (H-RQASIELPSM-OH)	1.77	–	IC50 [1]: 2.14 µM
CC[C@H](C)[C@H](NC(=O)[C@H](CO)NC(=O)[C@H](C)NC(=O)[C@H](CC(C)C)NC(=O)[C@@H](N)CCCNC(=N)N)C(=O)N[C@@H](CCC(=O)O)C(=O)N[C@@H](CC(C)C)C(=O)N1CCC[C@H]1C(=O)N[C@@H](CO)C(=O)N[C@H](C(=O)O)C(C)C (H-RLASIELPSV-OH)	0.0009	–	–
CC(C)C[C@H](NC(=O)CNC(=O)[C@H](Cc1ccc(O)cc1)NC(=O)[C@@H](NC(=O)[C@@H]1CCCN1C(=O)[C@H](COP(=O)(O)O)NC(=O)[C@H](Cc1ccccc1)NC(=O)[C@@H](NC(=O)[C@@H](N)CCCNC(=N)N)[C@@H](C)O)[C@@H](C)O)C(=O)O [RTFpSPTYGL] (H-RTF[pS]PTYGL-OH)	0.0325	–	–
AQApSIELPSM (peptide)	–	–	IC50 [2]: 0.0587 µM; IC50 [3]: 0.972 µM
CC[C@H](C)[C@H](NC(=O)[C@H](COP(=O)(O)O)NC(=O)[C@H](C)NC(=O)[C@H](CCC(N)=O)NC(=O)[C@@H](N)CCCNC(=N)N)C(=O)N[C@@H](CCC(=O)O)C(=O)N[C@@H](CC(C)C)C(=O)N1CCC[C@H]1C(=O)N[C@@H](CO)C(=O)N[C@@H](CCSC)C(=O)O [RQApSIELPSM] (H-RQA[pS]IELPSM-OH)	0.0112	–	IC50 [1]: 0.02 µM
YLDSGIHSGA (not fully specified) [… (non-phosphorylated counterpart of YLDpSGIHSGA)]	–	0.0835	–
KMDSFLDMQL (not fully specified) [… (non-phosphorylated counterpart of KMDpSFLDMQL)]	–	0.0114	–

Molecule	IC50 (HLA-A2) [µM]	IC50 [4] [µM]	further results
KMD[pS]FLDMQL [KMDpSFLDMQL]	–	0.0034	–
RVASPTSGV (not fully specified) [… (non-phosphorylated counterpart of RVApSPTSGV)]	–	0.731	–
RVA[pS]PTSGV [RVApSPTSGV]	–	0.178	–
RTYSGPMNKV (not fully specified) [… (non-phosphorylated counterpart of RTYpSGPMNKV)]	–	0.793	–
RTY[pS]GPMNKV [RTYpSGPMNKV]	–	0.117	–
RQASLSISV (not fully specified) [… (non-phosphorylated counterpart of RQApSLSISV)]	–	0.285	–
RQA[pS]LSISV [RQApSLSISV]	–	0.0385	–
RTFSPTYGL (not fully specified) [… (non-phosphorylated counterpart of RTFpSPTYGL)]	–	0.408	–
YLD[pS]GIHSGA [YLDpSGIHSGA]	–	0.146	–
RTF[pS]PTYGL [RTFpSPTYGL]	–	0.0325	–
RQA[pS]IELPSM [RQApSIELPSM]	–	0.0112	IC50 [5]: 0.02 µM
GLLGSPVRA (not fully specified) [… (non-phosphorylated counterpart of GLLGpSPVRA)]	–	0.219	–
GLLG[pS]PVRA [GLLGpSPVRA]	–	0.169	–
KLIDRTESL (not fully specified) [… (non-phosphorylated counterpart of KLIDRTEpSL)]	–	0.102	–
KLIDRTE[pS]L [KLIDRTEpSL]	–	0.0624	–
